Reference: the RNAGym collection of RNA variant scans (doi:10.7554/elife.90254)

B1: OR4K15 (parent)
chain: GUUAACGGUCAUAGGCCAUGGAAACUAGGAGCACCAUUUCGCUGCCAGUGAAGAAAUGAACAAAGAAAAUCUGGGCCAGGCAGGCAUCAAAAGAAAUAGUCUUGCGCUCAACCAGAAAGUCUGUAAUCAUUUUAAGGGUA

Variants of: B1
Test: self-cleavage, relative activity (ratio to wild type); higher = more cleavage; in vitro, sequencing; the parent is a self-cleaving ribozyme
Work on C81U A134G yielded a self-cleavage of 0.53.
A82G A116G gave a self-cleavage of 0.26.
A78U U120A gave a self-cleavage of 0.18.
Variant A78U A89U has a self-cleavage of 0.35.
For G79U A116U, the self-cleavage was 0.03.
G79C U120A showed a self-cleavage of 0.04.
In the case of A82C A98G, the self-cleavage is reported as 0.09.
In the case of A78U U139A, the self-cleavage is reported as 0.5.
For A78U U139C, the self-cleavage was 0.28.
With A82G G123A the self-cleavage was 0.75.
For G79A U132C, the self-cleavage was 0.1.
For A78G G137U, the self-cleavage was 0.25.
Work on C81U U132C yielded a self-cleavage of 0.5.
With A82G the self-cleavage was 0.4.
Work on A82C yielded a self-cleavage of 0.07.
A82U gave a self-cleavage of 0.14.
With G79U U102C the self-cleavage was 0.06.
Variant G80A A116G has a self-cleavage of 0.03.
With A78G U97G the self-cleavage was 0.27.
Variant A78G U97A has a self-cleavage of 0.27.
For C81A A82G, the self-cleavage was 0.13.
G80A A125U showed a self-cleavage of 0.24.
With A82C A114G the self-cleavage was 0.05.
Work on A82C A114U yielded a self-cleavage of 0.02.
In the case of A82C A91U, the self-cleavage is reported as 0.3.
A82G A92C gave a self-cleavage of 0.78.
For A82G A92G, the self-cleavage was 0.67.
Variant A82G U132A has a self-cleavage of 0.91.
Work on A78U U103C yielded a self-cleavage of 0.06.
With C81U A96G the self-cleavage was 0.43.
G79U U87C gave a self-cleavage of 0.11.
For G79U A129G, the self-cleavage was 0.04.
Work on G79A A110U yielded a self-cleavage of 0.24.
Variant C81A A90G has a self-cleavage of 0.07.
A78U G84C showed a self-cleavage of 0.11.
For A78U U108G, the self-cleavage was 0.01.
For A78U U108A, the self-cleavage was 0.01.
A82G A126C showed a self-cleavage of 0.41.
A82C C105U gave a self-cleavage of 0.02.
In the case of A78U A111G, the self-cleavage is reported as 0.02.
G79U G99A showed a self-cleavage of 0.03.
In the case of A82G G138A, the self-cleavage is reported as 0.49.
A82U A94C showed a self-cleavage of 0.06.
With A82U A94U the self-cleavage was 0.21.
Work on G80A A135G yielded a self-cleavage of 0.31.
In the case of A78U A114C, the self-cleavage is reported as 0.05.
For A78G U127G, the self-cleavage was 0.27.
For A78G U127C, the self-cleavage was 0.22.
Variant C81A U132C has a self-cleavage of 0.29.
G79A U139C showed a self-cleavage of 0.11.
With A82G A129U the self-cleavage was 0.22.
In the case of A78U A91U, the self-cleavage is reported as 0.8.
G80A A96G gave a self-cleavage of 0.18.
C81A G104A gave a self-cleavage of 0.67.
Variant G79A A129G has a self-cleavage of 0.17.
With G79A A129C the self-cleavage was 0.05.
For A78U U102C, the self-cleavage was 1.21.
A82G A91U showed a self-cleavage of 0.59.
For G79U, the self-cleavage was 0.06.
G79C showed a self-cleavage of 0.08.
G79A gave a self-cleavage of 0.14.
Variant A82G A118C has a self-cleavage of 0.28.
In the case of G80A U108C, the self-cleavage is reported as 0.01.
A78U A110G gave a self-cleavage of 0.05.
In the case of A78U A110C, the self-cleavage is reported as 0.05.
Variant G80A A86U has a self-cleavage of 0.24.
Work on A82G U122A yielded a self-cleavage of 0.11.
With A82C A89G the self-cleavage was 0.16.
Variant A78U A126G has a self-cleavage of 0.17.
A78U U97C gave a self-cleavage of 0.36.
For G79A A94U, the self-cleavage was 0.15.
With A78G G138A the self-cleavage was 0.2.
A82G U133C gave a self-cleavage of 0.72.
Variant G79A A140G has a self-cleavage of 0.13.
For A82G G136A, the self-cleavage was 0.9.
Variant G79U U132C has a self-cleavage of 0.09.
For A78G U131C, the self-cleavage was 0.07.
A78U U133A gave a self-cleavage of 0.72.
Variant G80A U132C has a self-cleavage of 0.08.
Work on A78G U103C yielded a self-cleavage of 0.11.
Work on C81U U103A yielded a self-cleavage of 0.1.
Variant A78G U139A has a self-cleavage of 0.23.
Work on A78G U139C yielded a self-cleavage of 0.24.
A82C A134G gave a self-cleavage of 0.17.
Work on A82C A117G yielded a self-cleavage of 0.15.
G79C A91G showed a self-cleavage of 0.09.
In the case of A82G U108A, the self-cleavage is reported as 0.04.
Work on A82G U108C yielded a self-cleavage of 0.02.
In the case of A78U A82G, the self-cleavage is reported as 0.08.
For A78U A82U, the self-cleavage was 0.15.
G79U A96U showed a self-cleavage of 0.13.
In the case of A78G C81A, the self-cleavage is reported as 0.1.
A78G C81U gave a self-cleavage of 0.14.
Variant A78U U130C has a self-cleavage of 0.2.
A82G C121U gave a self-cleavage of 0.91.
With A82G A86U the self-cleavage was 0.88.
Variant A82C A90G has a self-cleavage of 0.15.
Variant G80A A82C has a self-cleavage of 0.14.
Variant A78G U87A has a self-cleavage of 0.08.
With A78G U87C the self-cleavage was 0.05.
A78U G93U gave a self-cleavage of 0.53.
Work on A82G U124A yielded a self-cleavage of 0.32.
A78G U102C showed a self-cleavage of 0.31.
With G80U A86U the self-cleavage was 0.23.
Work on A82G A98G yielded a self-cleavage of 0.27.
Work on A82G U127A yielded a self-cleavage of 0.58.
For A82C U131A, the self-cleavage was 0.14.
Work on A82G U139C yielded a self-cleavage of 0.39.
In the case of G79A U127C, the self-cleavage is reported as 0.06.
With G80A A114U the self-cleavage was 0.05.
With A82G U120C the self-cleavage was 0.11.
With A78G G80A the self-cleavage was 0.13.
In the case of A82C A135G, the self-cleavage is reported as 0.15.
C81U U131C showed a self-cleavage of 0.37.
For A82G A89G, the self-cleavage was 0.45.
A82G A89U showed a self-cleavage of 0.51.
A78G U130G gave a self-cleavage of 0.
A78G U130C gave a self-cleavage of 0.3.
A78G U130A gave a self-cleavage of 0.17.
With A78G U108A the self-cleavage was 0.03.
A78G U108C gave a self-cleavage of 0.01.
With A82C A94G the self-cleavage was 0.19.
Variant A78U U127A has a self-cleavage of 0.8.
With A82G U100A the self-cleavage was 0.25.
C81A A86G gave a self-cleavage of 0.16.
Variant G80A A129U has a self-cleavage of 0.02.
In the case of C81A U103C, the self-cleavage is reported as 0.13.
For A78U A98G, the self-cleavage was 0.06.
G80A A90G gave a self-cleavage of 0.18.
In the case of A82G G106A, the self-cleavage is reported as 0.01.
A82G G106C showed a self-cleavage of 0.01.
In the case of A82C G119A, the self-cleavage is reported as 0.17.
G79C A116G showed a self-cleavage of 0.03.
A78U U100A showed a self-cleavage of 0.07.
Work on A82U A92G yielded a self-cleavage of 0.22.
Variant G79A U108A has a self-cleavage of 0.02.
Work on A78U A117U yielded a self-cleavage of 0.3.
A78U A117G showed a self-cleavage of 0.36.
In the case of G79C U97A, the self-cleavage is reported as 0.05.
With A78U U87C the self-cleavage was 0.31.
Work on A78G U120A yielded a self-cleavage of 0.22.
Variant C81U A111U has a self-cleavage of 0.05.
For A82G U103C, the self-cleavage was 2.05.
With G80A U102C the self-cleavage was 0.42.
A78G U122A gave a self-cleavage of 0.13.
Work on A82C C109U yielded a self-cleavage of 0.07.
A82G A134G gave a self-cleavage of 0.54.
With A82G U131C the self-cleavage was 0.45.
Variant A78G U132C has a self-cleavage of 0.12.
A78G G106A showed a self-cleavage of 0.03.
For A78G U124C, the self-cleavage was 0.14.
For C81U U122C, the self-cleavage was 0.29.
With A78U A134G the self-cleavage was 0.31.
With C81U A94G the self-cleavage was 0.41.
Variant A82G C113U has a self-cleavage of 0.05.
In the case of A82G A135G, the self-cleavage is reported as 0.58.
Work on A82G A117C yielded a self-cleavage of 0.06.
In the case of A82G A110G, the self-cleavage is reported as 0.07.
A82U A86G gave a self-cleavage of 0.12.
Work on A82U A86U yielded a self-cleavage of 0.32.
Work on A82G A96G yielded a self-cleavage of 0.59.
With A82G A96U the self-cleavage was 0.45.
For A78U A135G, the self-cleavage was 0.3.
With A82G C128U the self-cleavage was 0.33.
With A78G U100A the self-cleavage was 0.04.
Variant A78G U100C has a self-cleavage of 0.31.
For A78U U131C, the self-cleavage was 0.17.
